Results published in the DeepSol protein solubility set.

test: soluble on expression in E. coli; label from the status in PepcDB or PDB records

| Sequence | soluble on expression in E. coli |
| --- | --- |
| DMPAEIVNLIGKMRFHTVYGQNLLQHSREVAMLAGLMAAELKLDAKQAKRAGLLHDIGLVLPETEMPHALAGMEFLKKFNMSPVVLNAIGAHHGEVEKASPIADLVDAANIVSLSRPGARGAVTAEGNVKRLESLEEIARTFPGVIKTYALQAGREIRVIVEGDNVSD | not soluble |
| DMPRPTGLAADIRWTAYGVPHIRAKDERGLGYGIGYAYARDNACLLAEEIVTARGERARYFGSEGKSSAELDNLPSDIFYAWLNQPEALQAFWQAQTPAVRQLLEGYAAGFNRFLREADGKTTSCLGQPWLRAIATDDLLRLTRRLLVEGGVGQFADALVAAAPPGAEKV | soluble |
| DNKELQKLTEDISETYFKKPFRHQALFNDRLKTTGGRYLLTSHNIELNRKYLIEHGREELIGIIKHELCHYHLHLEGKGYKHRDRDFRMLLQQVNAPRFCTPLKKKAENKKTYMYICTTCGQQYIKKRAMNPDRYRCGKCRGKIKRI | not soluble |
| DPSKGRWVEGITSEGYHYYYDLISGASQWEKPEGFQGDLKKTAVKTVWVEGLSEDGFTYYYNTETGESRWEKPDD | soluble |
| DQQLVDQLSQLKLNVKMLDNRAGENGVDCAALGADWASCNRVLFTLSNDGQAIDGKDWVIYFHSPRQTLRVDNDQFKIAHLTGDLYKLEPTAKFSGFPAGKAVEIPVVAEYWQLFRNDFLPRWYATSGDAKPKMLANTDTENLDQFVAPFTGDQWKRTKDDKNILMTPASRFVSNADLQTLPAGALRGKIVPTPMQVKVHAQDADLRKGVALDLSTLVKPAADVVSQRFALLGVPVQTNGYPIKTDIQPGKFKGAMAVSGAYELKIGKKEAQVIGFDQAGVFYGLQSILSLVPSDGSGKIATLDASDAPRFPYRGIFLDVARNFHKKDAVLRLLDQMAAYKLNKFHFHLSDDEGWRIEIPGLPELTEVGGQRCHDLSETTCLLPQYGQGPDVYGGFFSRQDYIDIIKYAQARQIEVIPEIDMPAHARAAVVSMEARYKKLHAAGKEQEANEFRLVDQTDTSNTTSVQFFNRQSYLNPCLDSSQRFVDKVIGEIAQMHKEAGQPIKTWHFGGDDAKNIRLGAGYTDKAKPEPGKGIIDQSNEDKPWAKSQVCQTMIKEGKVADMEHLPSYFGQEVSKLVKAHGIDRMQAWQDGLKDAESSKAFATSRVGVNFWDTLYWGGFDSVNDWANKGYEVVVSNPDYVYMDFPYEVNPDERGYYWGTRFSDERKVFSFAPDNMPQNAETSVDRDGNHFNAKSDKPWPGAYGLSAQLWSETQRTDPQMEYMIFPRALSVAERSWHRAGWEQDYRAGREYKGGETHFVDTQALEKDWLRFANILGQRELAKLDKGGVAYRLPVPGARVAGGKLEANIALPGLGIEYSTDGGKQWQRYDAKAKPAVSGEVQVRSVSPDGKRYSRAEKV | soluble |
| DYKDIVLTQSHKFMSTSVGDRVSITCKASQDVGTAVAWYQQKPGQSPKLLIYWASTRHTGVPDRFTGSGSGTDFTLTISNVQSEDLADYFCQQYSSYPLTFGAGTKLELKRGGGGSGGGGSGGGGSGGGGSQVQLQESGGELVRPGASVKLSCKASGYTFTSYWINWVKQRPGQGLEWIGNIYPSDSYTNYNQKFKDKATLTVDKSSSTAYMQLSSLTSEDSAVYFCARWGYWGQGTLVTVSAASGAHHHHH | soluble |
| DYNGQAKCMLEKVGNWNFDIFLFDRLTNGNSLVSLTFHLFSLHGLIEYFHLDMMKLRRFLVMIQEDYHSQNPYHNAVHAADVTQAMHCYLKEPKLANSVTPWDILLSLIAAATHDLDHPGVNQPFLIKTNHYLATLYKNTSVLENHHWRSAVGLLRESGLFSHLPLESRQQMETQIGALILATDISRQNEYLSLFRSHLDRGDLCLEDTRHRHLVLQMALKCADICNPCRTWELSKQWSEKVTEEFFHQGDIEKKYHLGVSPLCDRHTESIANIQIGFMTYLVEPLFTEWARFSNTRLSQTMLGHVGLNKASWKGLQR | soluble |
| DYVGGCLDFRPEEGIFRIARDMFTEPELFDLEMELIFEKNWIYACHESELARPHDFVTLRAGRQPLIVTRDGNGQLHALVNACQHRGATLVRVGKGNQSTFTCPFHAWCYKNDGRLVKVKAPGEYPEGFDKATRGLKKARIQSYRGFVFVSLDVAGEDDLVDFLGDARVFLDMLVAQSPSGELEVLPGTSTYTYEGNWKLQNENGLDGYHVSTVHYNYVATVQHRQQVEAERGGVAATLDYSKLGAGDAATDDGWFSFANGHSVLFSEMPNPAVRPGYASVMPRLVAEYGQARAEWMMHRLRNLNLYPSLFVIDQISSQLRIVRPLAWNRTEIVSQCIGVKGESDADRENRIRQFEDFFNVSGMGTPDDLVEFREAQRGFQARLERWSDISRGHGKWLEGATPNSQALGIAPLLTGTEITHEGLYVNQHAHWRRFLLDGLERLALRA | not soluble |
